{"source": "paper PMC6538622", "key": {"[1]": {"target": "Acinetobacter baumannii RNase E N-terminal catalytic domain (Acinetobacter baumannii)", "assay": "SEC"}, "[2]": {"target": "Acinetobacter baumannii RNase E N-terminal catalytic domain (Acinetobacter baumannii)", "assay": "SEC-SAXS; 5-10 mg/ml protein in 10 mM DTT, 10 mM MgCl2, 0.5 M NaCl, 20 mM Tris pH 8; KW403-4F size-exclusion column, B21 beamline (Diamond Light Source); molecular mass from I(0)"}, "[3]": {"target": "Francisella tularensis RNase E N-terminal catalytic domain (Francisella tularensis) (UniProt Q5NFK7)", "assay": "SEC"}, "[4]": {"target": "Francisella tularensis RNase E N-terminal catalytic domain (Francisella tularensis) (UniProt Q5NFK7)", "assay": "SEC-SAXS"}, "[5]": {"target": "Yersinia pestis RNase E N-terminal catalytic domain (Yersinia pestis)", "assay": "SEC"}, "[6]": {"target": "Yersinia pestis RNase E N-terminal catalytic domain (Yersinia pestis)", "assay": "SEC-SAXS"}}}
{"substance": "Acinetobacter baumannii RNase E N-terminal catalytic domain (domain or fragment)", "values": [{"measurement": "stoichiometry N", "setting": "[1]", "value": 4}, {"measurement": "stoichiometry N", "setting": "[2]", "value": 4}]}
{"substance": "Francisella tularensis RNase E N-terminal catalytic domain (from UniProt Q5NFK7 1-543) (domain or fragment)", "values": [{"measurement": "stoichiometry N", "setting": "[3]", "value": 4}, {"measurement": "stoichiometry N", "setting": "[4]", "value": 4}]}
{"substance": "Yersinia pestis RNase E N-terminal catalytic domain (from UniProt A0AAX2HZU4 1-529) (domain or fragment)", "values": [{"measurement": "stoichiometry N", "setting": "[5]", "value": 4}, {"measurement": "stoichiometry N", "setting": "[6]", "value": 4}]}
